Test results: patent publication US20190083491, “SMALL MOLECULES INHIBITORS OF RAD51” (The University of Chicago, published 2019)

Molecular target: RAD51 (Homo sapiens, UniProt Q06609 Q06609:2-339)
Experiment: FP; 0.2 uM RAD51, 2.22 nM ssDNA, 2 mM ATP, 10 mM MgCl2, 30 mM NaCl, pH 7.5, 37 C; binding used to measure compound effects, no Kd given
Conditions: tags: human RAD51, purified as previously described (source inferred); label: 5'-Alexa488
Description: In each well, RAD51 protein was combined with reaction buffer and varying concentrations of compound in DMSO in an initial volume of 40 μl and incubated at 37° C. for 40 minutes. […] The final reaction contained 4% DMSO, 0.2 μM RAD51, 30 mM NaCl, 2% glycerol, and 2.22 nM ssDNA substrate.

Chain of RAD51 (Q06609 2-339, one chain of several): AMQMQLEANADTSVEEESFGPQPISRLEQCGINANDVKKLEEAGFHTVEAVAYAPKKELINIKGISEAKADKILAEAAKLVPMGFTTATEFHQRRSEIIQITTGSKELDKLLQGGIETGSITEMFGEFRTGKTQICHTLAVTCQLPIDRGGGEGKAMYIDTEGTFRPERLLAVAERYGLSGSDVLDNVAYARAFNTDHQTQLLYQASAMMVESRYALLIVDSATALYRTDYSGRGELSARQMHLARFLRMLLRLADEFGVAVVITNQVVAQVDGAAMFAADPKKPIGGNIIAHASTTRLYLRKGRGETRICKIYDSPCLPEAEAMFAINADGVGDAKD

TTTTTTTTTTTTTTTTTTTTTTTTTTTTTTTTTTTTTTTTTTTTT (ssDNA) [Alexa488-oligo-dT45]: binds.
